Earlier results in publication PMC5337993.

Molecular target: Kv1.3 (Homo sapiens) (UniProt P22001)
UniProt P22001, sequence (P22001 whole entry): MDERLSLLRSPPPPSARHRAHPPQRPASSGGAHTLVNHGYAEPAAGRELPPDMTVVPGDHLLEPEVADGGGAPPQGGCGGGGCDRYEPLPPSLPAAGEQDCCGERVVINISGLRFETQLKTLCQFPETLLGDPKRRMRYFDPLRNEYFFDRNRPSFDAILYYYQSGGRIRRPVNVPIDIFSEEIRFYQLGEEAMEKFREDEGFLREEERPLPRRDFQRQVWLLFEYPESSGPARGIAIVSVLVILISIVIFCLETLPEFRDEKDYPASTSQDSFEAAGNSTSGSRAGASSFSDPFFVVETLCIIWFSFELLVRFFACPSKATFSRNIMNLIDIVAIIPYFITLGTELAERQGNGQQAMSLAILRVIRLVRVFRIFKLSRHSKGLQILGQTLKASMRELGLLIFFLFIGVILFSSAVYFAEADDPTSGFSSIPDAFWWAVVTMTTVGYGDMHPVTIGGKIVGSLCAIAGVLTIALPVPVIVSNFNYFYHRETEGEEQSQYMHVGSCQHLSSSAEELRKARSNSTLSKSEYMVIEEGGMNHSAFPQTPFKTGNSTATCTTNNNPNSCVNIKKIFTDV

For ShK (from UniProt P29187), the Kd is listed as 0.01 nM.
